Results from PMC3230590, “Structure of the Bro1 Domain Protein BROX and Functional Analyses of the ALIX Bro1 Domain in HIV-1 Budding” (PLoS ONE, 2011).

T1: human BROX(1-401) (human, UniProt Q5VW32 1-401)
T1 construct: BROX, human, residues 1-401; lacks the 10 C-terminal residues 402-411 with the farnesylated Cys408; Residues of the vector may remain after TEV cleavage (surmise); also called wild type BROX; recombinant human BROX; not shown: His6, N-terminal, cleaved
T1 sequence (looked up): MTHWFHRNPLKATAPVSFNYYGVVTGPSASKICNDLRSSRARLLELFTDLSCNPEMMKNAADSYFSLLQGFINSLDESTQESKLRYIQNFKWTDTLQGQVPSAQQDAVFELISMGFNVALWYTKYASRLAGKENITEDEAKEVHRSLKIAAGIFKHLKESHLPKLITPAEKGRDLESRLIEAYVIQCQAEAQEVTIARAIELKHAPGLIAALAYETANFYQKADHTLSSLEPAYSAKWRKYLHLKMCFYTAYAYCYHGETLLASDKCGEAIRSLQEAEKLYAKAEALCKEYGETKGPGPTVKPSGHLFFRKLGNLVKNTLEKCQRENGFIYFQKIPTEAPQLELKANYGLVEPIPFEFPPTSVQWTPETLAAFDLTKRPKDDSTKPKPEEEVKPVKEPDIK


Columns and labels:
[1] = target: CHMP4B 205-224 (Homo sapiens) (UniProt Q9H444); conditions: cited from earlier work
[2] = target: T1, human BROX(1-401); test: SPR; Biacore 2000; CM5 chip with amine-coupled anti-GST antibody capturing GST-CHMP4B(205-224) or GST alone from crude E. coli lysates; pure BROX proteins injected in triplicate, 1.5-fold dilution series from 400 µM; equilibrium responses fit to 1:1 isotherms; conditions: both partners purified

ALIX Bro1, sequence (Q8WUM4 1-395): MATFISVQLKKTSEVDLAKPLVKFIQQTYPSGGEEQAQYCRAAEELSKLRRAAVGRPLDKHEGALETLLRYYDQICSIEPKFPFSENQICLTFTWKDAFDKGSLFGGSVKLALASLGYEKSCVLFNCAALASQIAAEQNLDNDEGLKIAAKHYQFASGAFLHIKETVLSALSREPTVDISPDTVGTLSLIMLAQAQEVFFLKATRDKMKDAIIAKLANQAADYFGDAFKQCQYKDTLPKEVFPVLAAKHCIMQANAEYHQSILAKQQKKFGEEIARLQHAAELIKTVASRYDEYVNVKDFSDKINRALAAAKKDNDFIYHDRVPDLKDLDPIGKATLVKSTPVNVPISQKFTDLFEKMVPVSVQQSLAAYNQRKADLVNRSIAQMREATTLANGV

Molecule	Kd [1] [µM]	Kd [2] [µM]
ALIX Bro1 (from UniProt Q8WUM4)	48	
KKKEEEDDDMKELENWAGSM (domain or fragment, UniProt Q9H444 205-224, looked up, also called C-terminal fragment from CHMP4B; source: E. coli, captured from crude expression lysates on an anti-GST antibody sensor chip) [GST-CHMP4B(205-224)]		98 ± 22
